Results on one molecule are retold here after paper PMC9095979, “Optimization of eIF4E-Binding Peptide Pep8 to Disrupt the RBM38-eIF4E Complex for Induction of p53 and Tumor Suppression” (Frontiers in Oncology, 2022).

In this assay the target is T1, eIF4E (purified, from pTXB1-eIF4E) (UniProt P06730 1-217).
T1 construct: also called purified eIF4E; source: pTXB1-eIF4E; protein expression and purification as previously described (12)
Description: pull-down; competitive: GST-RBM38 on GST beads, 250 µg purified eIF4E and 10 µM peptide in lysis buffer (50 mM Tris pH 7.5, 150 mM NaCl, 0.1% Triton X-100), rocked overnight, washed 3x, western blot. Conditions: both partners purified. (Immunoblotting shows a protein as a band on a membrane.)

T1 sequence (P06730 whole entry): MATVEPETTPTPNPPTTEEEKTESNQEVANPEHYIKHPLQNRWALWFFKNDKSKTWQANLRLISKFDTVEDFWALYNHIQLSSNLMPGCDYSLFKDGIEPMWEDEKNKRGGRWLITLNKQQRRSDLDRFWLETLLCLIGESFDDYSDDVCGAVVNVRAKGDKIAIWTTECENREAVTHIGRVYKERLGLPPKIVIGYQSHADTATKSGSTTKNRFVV

B1: Pep7 (peptide)
peptide: PSAASPV
notes: also called Pep7-PSAASPV; shortened 7-amino acid peptide; source: synthetic peptide (GenScript)
Turning to B1, the binding result was “binds”.
